The results in this text go back to patent US20240240203A1.

For this assay, the target named is Ad5 hexon capsid protein with DogTag inserted into the HVR5 loop, on Ad5 virions (Ad5-HVR5-DogTag) (human adenovirus serotype 5 (Ad5)) (UniProt P04133).

“polyhistidine-tagged recombinant DogCatcher with 18 copies of the NANP repeat sequence from the Plasmodium falciparum circumsporozoite protein fused to the C-terminus” showed a ligand coverage (% hexon) of over 90%.
